Key:
[1] = molecular target: T1, Streptococcus pneumoniae surface adhesin A (PsaA) protein (Streptococcus pneumoniae, UniProt P0A4G2 20-309); assay: whole-bacteria ELISA, strain R6, Ab 50 ng/ml
T1 construct: also called Pneumococcal surface adhesin A; recombinant PsaA
T1 sequence: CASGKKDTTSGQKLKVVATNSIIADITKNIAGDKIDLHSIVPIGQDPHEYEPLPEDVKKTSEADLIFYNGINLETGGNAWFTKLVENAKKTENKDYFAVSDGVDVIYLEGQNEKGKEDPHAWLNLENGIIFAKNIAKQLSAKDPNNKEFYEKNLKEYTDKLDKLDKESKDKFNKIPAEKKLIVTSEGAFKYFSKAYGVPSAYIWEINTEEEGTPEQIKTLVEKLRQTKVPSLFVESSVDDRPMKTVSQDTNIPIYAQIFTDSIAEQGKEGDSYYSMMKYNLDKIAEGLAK

[2] = molecular target: T1, Streptococcus pneumoniae surface …; assay: whole-bacteria ELISA, strain R6, Ab 0.5 µg/ml
[3] = molecular target: T1, Streptococcus pneumoniae surface …; assay: whole-bacteria ELISA, strain 7F, Ab 0.5 µg/ml
[4] = molecular target: T1, Streptococcus pneumoniae surface …; assay: whole-bacteria ELISA, strain R6, Ab 5 ng/ml
[5] = molecular target: T1, Streptococcus pneumoniae surface …; assay: whole-bacteria ELISA, strain 9V, Ab 0.5 µg/ml
[6] = molecular target: T1, Streptococcus pneumoniae surface …; assay: whole-bacteria ELISA, strain 8, Ab 0.5 µg/ml
[7] = molecular target: T1, Streptococcus pneumoniae surface …; assay: whole-bacteria ELISA, strain 4, Ab 0.5 µg/ml
[8] = molecular target: T1, Streptococcus pneumoniae surface …; assay: whole-bacteria ELISA, strain 14, Ab 0.5 µg/ml
[9] = molecular target: T1, Streptococcus pneumoniae surface …; assay: whole-bacteria ELISA, strain 12F, Ab 0.5 µg/ml
[10] = molecular target: T1, Streptococcus pneumoniae surface …; assay: whole-bacteria ELISA, strain R6, Ab 5 µg/ml
[11] = molecular target: T1, Streptococcus pneumoniae surface …; assay: whole-bacteria ELISA, strain 23F, Ab 0.5 µg/ml
[12] = molecular target: T1, Streptococcus pneumoniae surface …; assay: whole-bacteria ELISA, strain R6, Ab 0.5 ng/ml
[13] = molecular target: T1, Streptococcus pneumoniae surface …; assay: SPR (Biacore 3000), PsaA amine-coupled on CM5 chip, antibody in flow, 1:1 Langmuir fit
[14] = molecular target: T1, Streptococcus pneumoniae surface …; assay: whole-bacteria ELISA, strain 6B, Ab 0.5 µg/ml
[15] = molecular target: T1, Streptococcus pneumoniae surface …; assay: whole-bacteria ELISA, strain 3, Ab 0.5 µg/ml
[16] = molecular target: T1, Streptococcus pneumoniae surface …; assay: whole-bacteria ELISA, strain D39, Ab 0.5 µg/ml
[17] = molecular target: T1, Streptococcus pneumoniae surface …; assay: whole-bacteria ELISA, strain 1, Ab 0.5 µg/ml
[18] = molecular target: T2, fusion protein consisting of soluble CD64 linked to the Fc portion of human IgM (human, UniProt P12314 16-292; P01871 106-453, limits assumed); assay: bispecific sandwich ELISA: coated recombinant PsaA, detection with soluble CD64-IgM fusion and AP anti-human IgM
T2 construct: Used as a culture supernatant; also called soluble CD64-IgM fusion protein
T2 sequence (P12314 other isoform, or with tags, fused parts or gaps limits assumed): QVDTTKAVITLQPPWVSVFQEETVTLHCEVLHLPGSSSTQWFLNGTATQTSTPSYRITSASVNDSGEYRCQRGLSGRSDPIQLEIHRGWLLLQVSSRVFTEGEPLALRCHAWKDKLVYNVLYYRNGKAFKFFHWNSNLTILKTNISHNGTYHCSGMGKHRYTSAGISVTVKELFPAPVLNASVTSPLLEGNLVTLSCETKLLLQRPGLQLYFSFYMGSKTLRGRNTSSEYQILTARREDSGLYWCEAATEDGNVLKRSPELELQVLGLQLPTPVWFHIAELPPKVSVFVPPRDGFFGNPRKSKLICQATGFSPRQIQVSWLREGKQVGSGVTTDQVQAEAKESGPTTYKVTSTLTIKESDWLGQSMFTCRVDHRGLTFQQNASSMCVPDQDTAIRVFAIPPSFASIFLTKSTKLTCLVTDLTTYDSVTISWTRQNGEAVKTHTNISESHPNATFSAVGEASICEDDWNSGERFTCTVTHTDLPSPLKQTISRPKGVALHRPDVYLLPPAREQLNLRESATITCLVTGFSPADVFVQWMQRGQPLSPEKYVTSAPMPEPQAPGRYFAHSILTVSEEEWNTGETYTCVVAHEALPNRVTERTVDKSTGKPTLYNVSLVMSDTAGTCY

B1: Anti-PsaA 5-9A7 (antibody, V domains shown)
VH: EVQLVESGGGLVQPGGSLRLSCAASGFTFSSFWMSWVRQAPGKGLEWVANIKQDGSEKFYVDSVKGRFTISRDNAKNSLYLQMNSLRAEDTAVYYCARDRITMVRPYYYFYNGLDVWGQGTTVTVSS
VL: EIVLTQSPATLSLSPGERATLSCRASQSVSSYLAWYQQKPGQAPRLLIYDASNRATGIPARFSGSGSGTDFTLTISSLEPEDFAVYYCQQRSNWPPFTFGPGTKVDIK
notes: Fully human monoclonal antibody (HuMAb-Mouse), kappa light chain; also called clone 5-9A7
- R6 ELISA (corrected) [1]: 1.32
- ELISA (0.5 µg/ml) (corrected) [2]: 1.39
- R6 ELISA (corrected) [2]: 1.65
- ELISA (0.5 µg/ml) (corrected) [3]: 1.17
- R6 ELISA (corrected) [4]: 0.41
- ELISA (0.5 µg/ml) (corrected) [5]: > 3
- ELISA (0.5 µg/ml) (corrected) [6]: 1.52
- ELISA (0.5 µg/ml) (corrected) [7]: 0.33
- ELISA (0.5 µg/ml) (corrected) [8]: 1.42
- ELISA (0.5 µg/ml) (corrected) [9]: 1.51
- R6 ELISA (corrected) [10]: 1.39
- ELISA (0.5 µg/ml) (corrected) [11]: 0.37
- R6 ELISA (corrected) [12]: 0.26
- Kd [13]: 0.0374 nM
- koff [13]: 1.41e-05 s⁻¹
- kon [13]: 377000 M⁻¹ s⁻¹
- ELISA (0.5 µg/ml) (corrected) [14]: 0.39
- ELISA (0.5 µg/ml) (corrected) [15]: 1.31
- ELISA (0.5 µg/ml) (corrected) [16]: 0.66
- ELISA (0.5 µg/ml) (corrected) [17]: 0.4

B2: Anti-PsaA 7-1G9 (antibody, V domains shown)
VH: QVRLQQWGAGLLKPSETLSLTCAVFGGSFSGFSWSWIRQTPGKGLEWIGEIDYRGSTNYNPSLKSRVTILRDTSRSQFSLKLSSVTAADSAVFYCARGGPRFDYWGQGTLVTVSS
VL: DIQMTQSPSSLSASVGDRVTITCRASQGISSWLAWYQQKPEKAPESLIYVASSLQSGVPSRFSGSGSGTDFTLTISSLQPEDFATYYCQQYNSYPPTFGQGTKVEIK
notes: Fully human monoclonal antibody (HuMAb-Mouse), kappa light chain; also called clone 7-1G9.1
- R6 ELISA (corrected) [1]: 1.78
- ELISA (0.5 µg/ml) (corrected) [2]: 1.38
- R6 ELISA (corrected) [2]: 1.68
- ELISA (0.5 µg/ml) (corrected) [3]: 1.06
- R6 ELISA (corrected) [4]: 0.54
- ELISA (0.5 µg/ml) (corrected) [5]: > 3
- ELISA (0.5 µg/ml) (corrected) [6]: 1.5
- ELISA (0.5 µg/ml) (corrected) [7]: 0.33
- ELISA (0.5 µg/ml) (corrected) [8]: 1.32
- ELISA (0.5 µg/ml) (corrected) [9]: 1.46
- R6 ELISA (corrected) [10]: 1.36
- ELISA (0.5 µg/ml) (corrected) [11]: 0.36
- R6 ELISA (corrected) [12]: 0.31
- Kd [13]: 0.0634 nM
- koff [13]: 2.87e-05 s⁻¹
- kon [13]: 435000 M⁻¹ s⁻¹
- ELISA (0.5 µg/ml) (corrected) [14]: 0.4
- ELISA (0.5 µg/ml) (corrected) [15]: 1.24
- ELISA (0.5 µg/ml) (corrected) [16]: 0.68
- ELISA (0.5 µg/ml) (corrected) [17]: 0.35

B3: F(ab′)2 fragment of the anti-PsaA Ab 5-9A7 (other)
VH: EVQLVESGGGLVQPGGSLRLSCAASGFTFSSFWMSWVRQAPGKGLEWVANIKQDGSEKFYVDSVKGRFTISRDNAKNSLYLQMNSLRAEDTAVYYCARDRITMVRPYYYFYNGLDVWGQGTTVTVSS
VL: EIVLTQSPATLSLSPGERATLSCRASQSVSSYLAWYQQKPGQAPRLLIYDASNRATGIPARFSGSGSGTDFTLTISSLEPEDFAVYYCQQRSNWPPFTFGPGTKVDIK
notes: F(ab′)2 made by pepsin digestion; also called anti-PsaA F(ab′)2; 5-9A7 F(ab′)2
- binding result [18]: no binding (tested: 1 µg/ml)

B4: Anti-PsaA 1-15E5 (antibody, V domains shown)
VH: EVQLVESGGGLVQPGGSLRLSCAASGFTFNIFGMSWVRQAPGKGLEWVANIKQDGSEKYYVDSVKGRFTISRDNAKNSLYLQMNSLRAEDTAVYYCARDRFYYGSGSYYYYYNGMDVWGQGTTVTVSS
VL: EIVLTQSPATLSLSPGERATLSCRASQSVSSYLAWYQQKPGQAPRLLIYDASNRATGIPARFSGSGSGTDFTLTISSLEPEDFAVYYCQQRSNWPLTFGGGTKVEI
notes: Fully human monoclonal antibody (HuMAb-Mouse), kappa light chain; also called clone 1-15E5.2.1; 1-1-15E5
- Kd [13]: 0.118 nM
- koff [13]: 6.72e-06 s⁻¹
- kon [13]: 57100 M⁻¹ s⁻¹

Reference: patent publication US20070003561A1 (published 2007)
